{"source": "paper PMC3817168", "molecular_target": "ChrB-His6 (Ochrobactrum tritici 5bvl1)", "test": "cross-linking; 8 µg purified protein, 0.1% glutaraldehyde, 20 mM NaCl, 10 mM KCl, 2 mM DTT, 20 mM Hepes pH 7.5, 30°C, 2 to 60 min; read by 10% SDS-PAGE or anti-His immunoblot; also with chr promoter DNA and/or Cr(VI), without effect"}
{"substance": "ChrB-His6 (natural protein)", "values": [{"measurement": "stoichiometry N", "result": 2}]}
